Assay results taken from IntAct's records for PubMed 31515488.

B1: Leukocyte receptor cluster member 1 (Homo sapiens), Q96BZ8 (parent)
chain: MNILPKKSWHVRNKDNVARVRRDEAQAREEEKERERRVLLAQQEARTEFLRKKARHQNSLPELEAAEAGAPGSGPVDLFRELLEEGKGVIRGNKEYKEEKRQEKERQEKALGILTYLGQSAAEAQTQPPWYQLPPGRGGPPPGPAPDEKIKSRLDPLREMQKHLGKKRQHGGDEGSRSRKEKEGSEKQRPKEPPSLDQLRAERLRREAAERSRAEALLARVQGRALQEGQPEEDETDDRRRRYNSQFNPQLARRPRQQDPHLTH
B2: LHFPL tetraspan subfamily member 5 protein (Homo sapiens), Q8TAF8 (parent)
chain: MVKLLPAQEAAKIYHTNYVRNSRAVGVMWGTLTICFSVLVMALFIQPYWIGDSVNTPQAGYFGLFSYCVGNVLSSELICKGGPLDFSSIPSRAFKTAMFFVALGMFLIIGSIICFSLFFICNTATVYKICAWMQLAAATGLMIGCLVYPDGWDSSEVRRMCGEQTGKYTLGHCTIRWAFMLAILSIGDALILSFLAFVLGYRQDKLLPDDYKADGTEEV
partner: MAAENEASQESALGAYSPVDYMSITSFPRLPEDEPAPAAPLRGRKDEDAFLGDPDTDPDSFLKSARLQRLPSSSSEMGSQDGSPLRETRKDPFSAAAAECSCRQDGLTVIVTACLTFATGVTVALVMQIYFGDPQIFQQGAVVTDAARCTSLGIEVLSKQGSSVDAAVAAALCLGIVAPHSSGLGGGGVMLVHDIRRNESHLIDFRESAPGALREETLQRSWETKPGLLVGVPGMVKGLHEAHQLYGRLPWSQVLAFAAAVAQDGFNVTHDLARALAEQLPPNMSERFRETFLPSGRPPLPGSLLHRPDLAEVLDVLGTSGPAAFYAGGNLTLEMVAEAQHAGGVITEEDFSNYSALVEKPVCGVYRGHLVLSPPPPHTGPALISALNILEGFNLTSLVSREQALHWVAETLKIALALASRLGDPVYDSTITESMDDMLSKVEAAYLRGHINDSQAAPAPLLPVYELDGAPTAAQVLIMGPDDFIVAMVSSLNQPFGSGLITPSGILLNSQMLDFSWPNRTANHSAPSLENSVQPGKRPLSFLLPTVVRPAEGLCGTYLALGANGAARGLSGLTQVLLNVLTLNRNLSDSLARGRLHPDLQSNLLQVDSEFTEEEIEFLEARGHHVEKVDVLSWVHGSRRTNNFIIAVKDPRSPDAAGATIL
B3: Protein FAM13C (Homo sapiens), Q8NE31 (parent)
chain: MFSCFCFSLQDNSFSSTTVTECDEDPVSLHEDQTDCSSLRDENNKENYPDAGALVEEHAPPSWEPQQQNVEATVLVDSVLRPSMGNFKSRKPKSIFKAESGRSHGESQETEHVVSSQSECQVRAGTPAHESPQNNAFKCQETVRLQPRIDQRTAISPKDAFETRQDLNEEEAAQVHGVKDPAPASTQSVLADGTDSADPSPVHKDGQNEADSAPEDLHSVGTSRLLYHITDGDNPLLSPRCSIFSQSQRFNLDPESAPSPPSTQQFMMPRSSSRCSCGDGKEPQTITQLTKHIQSLKRKIRKFEEKFEQEKKYRPSHGDKTSNPEVLKWMNDLAKGRKQLKELKLKLSEEQGSAPKGPPRNLLCEQPTVPRENGKPEAAGPEPSSSGEETPDAALTCLKERREQLPPQEDSKVTKQDKNLIKPLYDRYRIIKQILSTPSLIPTIQEEEDSDEDRPQGSQQPSLADPASHLPVGDHLTYSNETEPVRALLPDEKKEVKPPALSMSNLHEATMPVLLDHLRETRADKKRLRKALREFEEQFFKQTGRSPQKEDRIPMADEYYEYKHIKAKLRLLEVLISKQDVAKTI
partner: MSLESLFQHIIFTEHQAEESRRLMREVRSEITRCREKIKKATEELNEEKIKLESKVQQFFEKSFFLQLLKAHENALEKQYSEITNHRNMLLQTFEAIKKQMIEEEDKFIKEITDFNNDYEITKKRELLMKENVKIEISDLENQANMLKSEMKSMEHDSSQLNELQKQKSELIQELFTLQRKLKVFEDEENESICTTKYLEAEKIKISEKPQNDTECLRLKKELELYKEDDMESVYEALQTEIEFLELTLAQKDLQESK
B4: Microtubule-associated tumor suppressor candidate 2 (Homo sapiens), Q5JR59-3 (parent)
chain: MGHCCCKPYNCLQCLDKTNESALVKEKELSIELANIRDEVAFHTAKCEKLQKEKEELERRFEDEVKRLGWQQQAELQELEERLQLQFEAEMARLQEEHGDQLLSIRCQHQEQVEDLTASHDAALLEMENNHTVAITILQDDHDHKVQELMSTHELEKKELEENFEKLRLSLQDQVDTLTFQSQSLRDRARRFEEALRKNTEEQLEIALAPYQHLEEDMKSLKQVLEMKNQQIHEQEKKILELEKLAEKNIILEEKIQVLQQQNEDLKARIDQNTVVTRQLSEENANLQEYVEKETQEKKRLSRTNEELLWKLQTGDPTSPIKLSPTSPVYRGSSSGPSSPARVSTTPR
partner: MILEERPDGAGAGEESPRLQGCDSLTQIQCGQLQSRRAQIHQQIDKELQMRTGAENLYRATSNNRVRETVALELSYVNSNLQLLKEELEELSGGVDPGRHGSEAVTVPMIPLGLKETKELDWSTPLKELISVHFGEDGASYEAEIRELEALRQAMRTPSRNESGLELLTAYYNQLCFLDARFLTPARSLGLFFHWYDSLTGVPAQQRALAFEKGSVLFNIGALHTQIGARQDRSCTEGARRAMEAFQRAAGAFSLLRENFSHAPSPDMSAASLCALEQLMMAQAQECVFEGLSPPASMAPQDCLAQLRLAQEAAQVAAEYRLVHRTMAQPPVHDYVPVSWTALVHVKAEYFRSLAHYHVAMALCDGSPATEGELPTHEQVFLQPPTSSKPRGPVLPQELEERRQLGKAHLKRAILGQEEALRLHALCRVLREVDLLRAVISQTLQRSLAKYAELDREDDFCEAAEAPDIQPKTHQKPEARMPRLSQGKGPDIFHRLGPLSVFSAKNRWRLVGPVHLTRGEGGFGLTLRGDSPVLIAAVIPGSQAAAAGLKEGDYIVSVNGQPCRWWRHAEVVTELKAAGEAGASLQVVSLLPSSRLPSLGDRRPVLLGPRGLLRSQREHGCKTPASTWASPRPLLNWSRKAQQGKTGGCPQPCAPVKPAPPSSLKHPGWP
B5: Septin-12 (Homo sapiens), Q8IYM1 (parent)
chain: MDPLRRSPSPCLSSQPSSPSTPPCEMLGPVGIEAVLDQLKIKAMKMGFEFNIMVVGQSGLGKSTMVNTLFKSKVWKSNPPGLGVPTPQTLQLHSLTHVIEEKGVKLKLTVTDTPGFGDQINNDNCWDPILGYINEQYEQYLQEEILITRQRHIPDTRVHCCVYFVPPTGHCLRPLDIEFLQRLCRTVNVVPVIARADSLTMEEREAFRRRIQQNLRTHCIDVYPQMCFDEDINDKILNSKLRDRIPFAVVGADQEHLVNGRCVLGRKTKWGIIEVENMAHCEFPLLRDLLIRSHLQDLKDITHNIHYENYRVIRLNESHLLPRGPGWVNLAPASPGQLTTPRTFKVCRGAHDDSDDEF
partner: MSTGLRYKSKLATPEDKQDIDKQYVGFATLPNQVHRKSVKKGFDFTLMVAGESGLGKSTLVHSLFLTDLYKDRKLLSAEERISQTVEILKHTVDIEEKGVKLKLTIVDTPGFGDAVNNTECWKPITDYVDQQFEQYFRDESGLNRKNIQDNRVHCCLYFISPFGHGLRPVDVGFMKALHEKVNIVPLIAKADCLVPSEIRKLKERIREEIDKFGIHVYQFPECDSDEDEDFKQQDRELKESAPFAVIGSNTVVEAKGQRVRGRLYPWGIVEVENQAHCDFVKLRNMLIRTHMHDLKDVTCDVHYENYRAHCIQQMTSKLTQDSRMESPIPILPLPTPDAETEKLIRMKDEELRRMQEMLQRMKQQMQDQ
B6: Isoform 1 of Ras-related protein Rab-5C (Homo sapiens), P51148-1 (parent)
chain: MAGRGGAARPNGPAAGNKICQFKLVLLGESAVGKSSLVLRFVKGQFHEYQESTIGAAFLTQTVCLDDTTVKFEIWDTAGQERYHSLAPMYYRGAQAAIVVYDITNTDTFARAKNWVKELQRQASPNIVIALAGNKADLASKRAVEFQEAQAYADDNSLLFMETSAKTAMNVNEIFMAIAKKLPKNEPQNATGAPGRNRGVDLQENNPASRSQCCSN
partner: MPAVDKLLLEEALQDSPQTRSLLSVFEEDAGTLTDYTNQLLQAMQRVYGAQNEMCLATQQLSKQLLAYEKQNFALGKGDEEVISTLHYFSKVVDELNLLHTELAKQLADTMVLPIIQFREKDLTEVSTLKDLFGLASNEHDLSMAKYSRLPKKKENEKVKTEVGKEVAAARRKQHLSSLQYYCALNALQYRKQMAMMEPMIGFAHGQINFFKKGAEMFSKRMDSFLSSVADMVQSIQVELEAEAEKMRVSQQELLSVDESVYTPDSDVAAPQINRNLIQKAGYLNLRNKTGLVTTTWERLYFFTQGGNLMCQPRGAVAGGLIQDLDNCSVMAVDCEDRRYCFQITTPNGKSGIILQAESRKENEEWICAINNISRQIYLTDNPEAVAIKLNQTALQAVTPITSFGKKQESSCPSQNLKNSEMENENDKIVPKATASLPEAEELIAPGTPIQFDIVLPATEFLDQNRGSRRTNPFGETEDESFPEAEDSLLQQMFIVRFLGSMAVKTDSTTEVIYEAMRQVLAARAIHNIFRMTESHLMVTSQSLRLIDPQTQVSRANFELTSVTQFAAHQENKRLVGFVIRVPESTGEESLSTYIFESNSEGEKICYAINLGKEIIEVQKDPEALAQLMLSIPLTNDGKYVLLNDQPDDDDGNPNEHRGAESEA
B7: Cyclic AMP-responsive element-binding protein 3-like protein 1 (Homo sapiens), Q96BA8 (parent)
chain: MDAVLEPFPADRLFPGSSFLDLGDLNESDFLNNAHFPEHLDHFTENMEDFSNDLFSSFFDDPVLDEKSPLLDMELDSPTPGIQAEHSYSLSGDSAPQSPLVPIKMEDTTQDAEHGAWALGHKLCSIMVKQEQSPELPVDPLAAPSAMAAAAAMATTPLLGLSPLSRLPIPHQAPGEMTQLPVIKAEPLEVNQFLKVTPEDLVQMPPTPPSSHGSDSDGSQSPRSLPPSSPVRPMARSSTAISTSPLLTAPHKLQGTSGPLLLTEEEKRTLIAEGYPIPTKLPLTKAEEKALKRVRRKIKNKISAQESRRKKKEYVECLEKKVETFTSENNELWKKVETLENANRTLLQQLQKLQTLVTNKISRPYKMAATQTGTCLMVAALCFVLVLGSLVPCLPEFSSGSQTVKEDPLAADGVYTASQMPSRSLLFYDDGAGLWEDGRSTLLPMEPPDGWEINPGGPAEQRPRDHLQHDHLDSTHETTKYLSEAWPKDGGNGTSPDFSHSKEWFHDRDLGPNTTIKLS
B8: Coiled-coil domain-containing protein 92 (Homo sapiens), Q53HC0 (parent)
chain: MTSPHFSSYDEGPLDVSMAATNLENQLHSAQKNLLFLQREHASTLKGLHSEIRRLQQHCTDLTYELTVKSSEQTGDGTSKSSELKKRCEELEAQLKVKENENAELLKELEQKNAMITVLENTIKEREKKYLEELKAKSHKLTLLSSELEQRASTIAYLTSQLHAAKKKLMSSSGTSDASPSGSPVLASYKPAPPKDKLPETPRRRMKKSLSAPLHPEFEEVYRFGAESRKLLLREPVDAMPDPTPFLLARESAEVHLIKERPLVIPPIASDRSGEQHSPAREKPHKAHVGVAHRIHHATPPQAQPEVKTLAVDQVNGGKVVRKHSGTDRTV
partner: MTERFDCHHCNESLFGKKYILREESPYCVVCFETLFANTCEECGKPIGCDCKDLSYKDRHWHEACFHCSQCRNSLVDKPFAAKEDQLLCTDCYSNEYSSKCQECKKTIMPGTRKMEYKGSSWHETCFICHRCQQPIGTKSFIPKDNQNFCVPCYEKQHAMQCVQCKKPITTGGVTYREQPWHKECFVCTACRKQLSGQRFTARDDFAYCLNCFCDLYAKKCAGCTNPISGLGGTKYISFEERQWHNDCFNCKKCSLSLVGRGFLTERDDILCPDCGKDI

Variants of: B1
Details: with cep70_human CEP70, Q8NHQ1
Sequence of cep70_human CEP70, Q8NHQ1 (Q8NHQ1 whole entry): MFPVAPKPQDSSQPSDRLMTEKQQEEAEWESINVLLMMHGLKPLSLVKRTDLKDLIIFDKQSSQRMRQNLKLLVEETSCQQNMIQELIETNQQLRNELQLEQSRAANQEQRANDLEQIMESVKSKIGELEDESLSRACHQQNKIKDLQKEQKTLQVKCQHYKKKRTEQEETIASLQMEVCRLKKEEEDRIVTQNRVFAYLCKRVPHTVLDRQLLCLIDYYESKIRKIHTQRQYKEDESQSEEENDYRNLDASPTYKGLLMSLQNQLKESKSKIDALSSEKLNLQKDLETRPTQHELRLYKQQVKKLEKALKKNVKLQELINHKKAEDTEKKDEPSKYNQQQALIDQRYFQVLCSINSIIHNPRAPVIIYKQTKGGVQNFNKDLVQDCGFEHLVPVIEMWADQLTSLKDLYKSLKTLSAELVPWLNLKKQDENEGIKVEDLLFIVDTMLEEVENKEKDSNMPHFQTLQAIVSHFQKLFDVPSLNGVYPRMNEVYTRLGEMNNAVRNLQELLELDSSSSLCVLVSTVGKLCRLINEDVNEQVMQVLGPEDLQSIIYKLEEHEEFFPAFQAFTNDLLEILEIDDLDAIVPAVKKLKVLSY

Variant	effect of a mutation on the interaction
K97Q	with no effect

Variants of: B1
Details: with trim1_human MID2, Q9UJV3
Sequence of trim1_human MID2, Q9UJV3 (Q9UJV3 whole entry): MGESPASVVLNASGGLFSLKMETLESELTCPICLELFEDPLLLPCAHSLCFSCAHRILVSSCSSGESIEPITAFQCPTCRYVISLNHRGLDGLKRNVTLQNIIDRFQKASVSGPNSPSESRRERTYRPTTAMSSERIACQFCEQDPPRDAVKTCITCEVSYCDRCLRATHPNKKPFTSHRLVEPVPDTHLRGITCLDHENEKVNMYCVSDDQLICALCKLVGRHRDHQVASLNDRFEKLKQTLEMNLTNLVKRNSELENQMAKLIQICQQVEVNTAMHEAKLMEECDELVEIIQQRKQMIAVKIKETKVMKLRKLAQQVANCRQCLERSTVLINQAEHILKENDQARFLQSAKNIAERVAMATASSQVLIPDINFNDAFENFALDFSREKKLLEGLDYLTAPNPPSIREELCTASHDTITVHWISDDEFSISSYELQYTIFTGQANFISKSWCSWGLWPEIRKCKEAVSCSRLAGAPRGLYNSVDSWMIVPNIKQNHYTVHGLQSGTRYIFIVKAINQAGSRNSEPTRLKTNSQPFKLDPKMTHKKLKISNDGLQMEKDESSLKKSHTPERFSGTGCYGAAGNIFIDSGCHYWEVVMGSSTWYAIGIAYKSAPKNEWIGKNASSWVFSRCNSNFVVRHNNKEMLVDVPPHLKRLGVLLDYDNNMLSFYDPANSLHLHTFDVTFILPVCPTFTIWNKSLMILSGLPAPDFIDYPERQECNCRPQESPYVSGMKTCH

Variant	effect of a mutation on the interaction
K97Q	with no effect

Variants of: B1
Details: with rop1a_human ROPN1, Q9HAT0
Sequence of rop1a_human ROPN1, Q9HAT0 (Q9HAT0 whole entry): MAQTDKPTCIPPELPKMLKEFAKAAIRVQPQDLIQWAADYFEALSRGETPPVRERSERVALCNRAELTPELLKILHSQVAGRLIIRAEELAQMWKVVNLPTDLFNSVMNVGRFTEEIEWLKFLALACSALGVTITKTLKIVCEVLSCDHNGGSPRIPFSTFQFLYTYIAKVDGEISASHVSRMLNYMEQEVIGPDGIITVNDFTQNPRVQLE

Variant	effect of a mutation on the interaction
K97Q	with no effect

Variants of: B1
Details: with ldoc1_human LDOC1, O95751
Sequence of ldoc1_human LDOC1, O95751 (O95751 whole entry): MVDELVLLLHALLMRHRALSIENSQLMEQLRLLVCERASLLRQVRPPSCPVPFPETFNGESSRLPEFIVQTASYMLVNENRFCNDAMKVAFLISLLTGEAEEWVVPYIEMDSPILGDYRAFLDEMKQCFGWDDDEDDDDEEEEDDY

Variant	effect of a mutation on the interaction
K97Q	with no effect

Variants of: B2
Details: with ggt7_human GGT7, Q9UJ14

Variant	effect of a mutation on the interaction
K205N	with no effect

Variants of: B3
Details: with cc172_human CCDC172, P0C7W6

Variant	effect of a mutation on the interaction
P147S	with no effect

Variants of: B4
Details: with rhpn1_human RHPN1, Q8TCX5

Variant	effect of a mutation on the interaction
A89V	with no effect

Variants of: B5
Details: with sept5_human SEPTIN5, Q99719

Variant	effect of a mutation on the interaction
R311C	with no effect
C184S	with no effect
Q213R	disrupting interaction strength
V162M	disrupting interaction strength
G169E	disrupting interaction strength
R204Q	disrupting interaction strength
D197N	disrupting interaction strength
K73N	with no effect
T111K	disrupting interaction strength
V263D	disrupting interaction strength

Variants of: B6
Details: with dp13b_human APPL2, Q8NEU8

Variant	effect of a mutation on the interaction
G93R	with no effect

Variants of: B6
Details: with dp13b_human APPL2, Q8NEU8
Remark: another data set of the same source

Variant	effect of a mutation on the interaction
R196Q	with no effect
N206S	with no effect

Variants of: B7
Details: with gpr25_human GPR25, O00155
Sequence of gpr25_human GPR25, O00155 (O00155 whole entry): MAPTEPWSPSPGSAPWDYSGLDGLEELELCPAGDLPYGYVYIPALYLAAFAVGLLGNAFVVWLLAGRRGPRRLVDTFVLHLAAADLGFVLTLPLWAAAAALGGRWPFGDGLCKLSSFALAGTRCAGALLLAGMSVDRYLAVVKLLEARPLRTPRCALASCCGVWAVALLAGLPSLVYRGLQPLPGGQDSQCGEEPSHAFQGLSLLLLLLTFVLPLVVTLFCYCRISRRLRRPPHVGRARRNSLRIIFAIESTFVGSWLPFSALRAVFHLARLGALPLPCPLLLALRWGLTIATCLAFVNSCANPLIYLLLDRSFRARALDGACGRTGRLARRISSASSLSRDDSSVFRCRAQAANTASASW

Variant	effect of a mutation on the interaction
A152T	with no effect
I516S	with no effect

Variants of: B7
Details: with tm147_human TMEM147, Q9BVK8
Sequence of tm147_human TMEM147, Q9BVK8 (Q9BVK8 whole entry): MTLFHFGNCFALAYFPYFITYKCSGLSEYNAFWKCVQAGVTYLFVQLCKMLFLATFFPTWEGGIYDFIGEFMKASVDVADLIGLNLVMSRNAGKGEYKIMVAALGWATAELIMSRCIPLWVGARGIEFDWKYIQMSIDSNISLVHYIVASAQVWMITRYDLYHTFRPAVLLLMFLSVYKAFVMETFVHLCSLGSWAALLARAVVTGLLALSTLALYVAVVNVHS

Variant	effect of a mutation on the interaction
A152T	with no effect
I516S	with no effect

Variants of: B8
Details: with fhl2_human FHL2, Q14192

Variant	effect of a mutation on the interaction
S70C	with no effect
